Target: NSTTR, artificially mutated variant of TTR carrying the double mutation N99R/S100R
Assay: SEC-MALS

With “NSTTR, artificially mutated variant of TTR carrying the double mutation N99R/S100R (natural protein)” the stoichiometry N was 4.

From paper doi:10.1101/852715
